Data published in patent US20240209099A1.
Where two headings read alike, the source gives them in different places.

Columns and labels:
[1] = target: Recombinant Rhesus macaque VEGFR2/KDR Protein, His tag (rhesus macaque); assay: ELISA, rhesus VEGFR2-his coated, anti-human Fc-HRP
[2] = target: human VEGFR2 on HUVEC cells (human) (UniProt P35968); assay: flow cytometry on HUVEC cells, MFI, anti-human IgG (H+L)-PE
[3] = target: Recombinant Human VEGFR2/KDR Protein, His tag (hVEGFR2-his) (human) (UniProt P35968); assay: ELISA, hVEGFR2-his coated (0.5 ug/ml), anti-human Fc-HRP
[4] = target: Recombinant Rhesus macaque VEGFR2/KDR Protein, His tag (rhesus macaque); assay: competition ELISA: VEGF-A coated (0.25 ug/ml), antibody titrated together with 1 ug/ml rhesus VEGFR2, detection with mouse anti-VEGFR2 serum and anti-mouse Fc-HRP; blocked ligand VEGF-A
[5] = target: Recombinant Human VEGFR2/KDR Protein, His tag (hVEGFR2-his) (human) (UniProt P35968); assay: competition ELISA: VEGF-A coated (0.25 ug/ml), antibody mixed with VEGFR2, detection with mouse anti-VEGFR2 serum and anti-mouse Fc-HRP; blocked ligand VEGF-A
[6] = target: Recombinant Human VEGFR2/KDR Protein, His tag (hVEGFR2-his) (human) (UniProt P35968); assay: ELISA, human VEGFR2-his coated, anti-human Fc-HRP
[7] = target: Recombinant Human VEGFR2/KDR Protein, His tag (hVEGFR2-his) (human) (UniProt P35968); assay: competition ELISA: VEGF-A coated (0.25 ug/ml), antibody titrated together with 1 ug/ml human VEGFR2, detection with mouse anti-VEGFR2 serum and anti-mouse Fc-HRP; blocked ligand VEGF-A
[8] = target: Recombinant Human VEGFR2/KDR Protein, His tag (hVEGFR2-his) (human) (UniProt P35968); assay: competition ELISA: hVEGFR2-his coated (1 ug/ml), antibody titrated, then 0.3 ug/ml hVEGF-A added and bound VEGF-A detected; blocked ligand hVEGF-A
[9] = target: Recombinant Rhesus macaque VEGFR2/KDR Protein, His tag (rhesus macaque); assay: ELISA, rhesus VEGFR2-his coated, anti-human Fc-HRP; remark: listed apart in the source
[10] = target: human VEGFR2 on HUVEC cells (human) (UniProt P35968); assay: flow cytometry on HUVEC cells, percent shifted cells (Shift %), anti-human IgG-PE

Sequence of Recombinant Human VEGFR2/KDR Protein, His tag (hVEGFR2-his) (human) (P35968 other isoform, or with tags, fused parts or gaps): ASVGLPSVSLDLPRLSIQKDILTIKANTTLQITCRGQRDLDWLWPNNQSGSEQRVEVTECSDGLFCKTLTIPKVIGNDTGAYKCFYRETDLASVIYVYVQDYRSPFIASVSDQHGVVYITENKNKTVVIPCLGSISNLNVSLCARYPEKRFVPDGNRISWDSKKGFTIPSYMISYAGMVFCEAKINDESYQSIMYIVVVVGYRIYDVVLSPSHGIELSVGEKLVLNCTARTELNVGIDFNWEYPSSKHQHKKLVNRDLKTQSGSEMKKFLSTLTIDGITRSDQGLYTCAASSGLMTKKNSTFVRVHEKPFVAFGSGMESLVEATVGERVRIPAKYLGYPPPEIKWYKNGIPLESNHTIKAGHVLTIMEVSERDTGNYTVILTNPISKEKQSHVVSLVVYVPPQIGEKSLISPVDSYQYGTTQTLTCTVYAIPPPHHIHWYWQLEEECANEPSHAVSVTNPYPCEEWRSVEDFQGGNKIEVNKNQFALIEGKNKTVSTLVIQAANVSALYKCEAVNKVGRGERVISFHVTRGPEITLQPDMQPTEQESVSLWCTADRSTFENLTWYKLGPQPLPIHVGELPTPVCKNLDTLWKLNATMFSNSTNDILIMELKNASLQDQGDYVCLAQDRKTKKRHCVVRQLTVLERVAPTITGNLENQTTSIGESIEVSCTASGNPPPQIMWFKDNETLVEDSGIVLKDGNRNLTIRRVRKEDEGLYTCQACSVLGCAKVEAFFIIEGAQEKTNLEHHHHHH
Sequence of Recombinant Rhesus macaque VEGFR2/KDR Protein, His tag (rhesus macaque) (chain, as listed by the source): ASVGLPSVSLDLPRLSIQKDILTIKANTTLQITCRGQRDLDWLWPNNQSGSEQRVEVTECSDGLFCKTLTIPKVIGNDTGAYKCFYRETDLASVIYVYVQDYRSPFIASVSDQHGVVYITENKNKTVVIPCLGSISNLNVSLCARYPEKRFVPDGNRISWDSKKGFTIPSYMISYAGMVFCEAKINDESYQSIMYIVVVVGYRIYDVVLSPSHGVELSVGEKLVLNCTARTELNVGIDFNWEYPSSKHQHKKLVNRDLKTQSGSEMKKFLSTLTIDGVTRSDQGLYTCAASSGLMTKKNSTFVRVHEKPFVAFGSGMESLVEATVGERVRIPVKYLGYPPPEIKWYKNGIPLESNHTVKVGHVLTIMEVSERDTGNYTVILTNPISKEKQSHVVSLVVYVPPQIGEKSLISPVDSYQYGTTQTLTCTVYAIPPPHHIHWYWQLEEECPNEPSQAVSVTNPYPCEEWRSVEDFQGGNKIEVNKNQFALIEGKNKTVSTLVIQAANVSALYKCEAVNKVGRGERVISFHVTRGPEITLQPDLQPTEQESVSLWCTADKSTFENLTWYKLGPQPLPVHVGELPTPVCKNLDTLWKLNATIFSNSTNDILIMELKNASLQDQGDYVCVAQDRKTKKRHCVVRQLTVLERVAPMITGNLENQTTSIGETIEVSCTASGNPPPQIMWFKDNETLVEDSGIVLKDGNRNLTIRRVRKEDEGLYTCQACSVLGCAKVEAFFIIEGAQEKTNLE
Sequence of human VEGFR2 on HUVEC cells (human) (P35968 20-1356 V297I/Q472H limits assumed): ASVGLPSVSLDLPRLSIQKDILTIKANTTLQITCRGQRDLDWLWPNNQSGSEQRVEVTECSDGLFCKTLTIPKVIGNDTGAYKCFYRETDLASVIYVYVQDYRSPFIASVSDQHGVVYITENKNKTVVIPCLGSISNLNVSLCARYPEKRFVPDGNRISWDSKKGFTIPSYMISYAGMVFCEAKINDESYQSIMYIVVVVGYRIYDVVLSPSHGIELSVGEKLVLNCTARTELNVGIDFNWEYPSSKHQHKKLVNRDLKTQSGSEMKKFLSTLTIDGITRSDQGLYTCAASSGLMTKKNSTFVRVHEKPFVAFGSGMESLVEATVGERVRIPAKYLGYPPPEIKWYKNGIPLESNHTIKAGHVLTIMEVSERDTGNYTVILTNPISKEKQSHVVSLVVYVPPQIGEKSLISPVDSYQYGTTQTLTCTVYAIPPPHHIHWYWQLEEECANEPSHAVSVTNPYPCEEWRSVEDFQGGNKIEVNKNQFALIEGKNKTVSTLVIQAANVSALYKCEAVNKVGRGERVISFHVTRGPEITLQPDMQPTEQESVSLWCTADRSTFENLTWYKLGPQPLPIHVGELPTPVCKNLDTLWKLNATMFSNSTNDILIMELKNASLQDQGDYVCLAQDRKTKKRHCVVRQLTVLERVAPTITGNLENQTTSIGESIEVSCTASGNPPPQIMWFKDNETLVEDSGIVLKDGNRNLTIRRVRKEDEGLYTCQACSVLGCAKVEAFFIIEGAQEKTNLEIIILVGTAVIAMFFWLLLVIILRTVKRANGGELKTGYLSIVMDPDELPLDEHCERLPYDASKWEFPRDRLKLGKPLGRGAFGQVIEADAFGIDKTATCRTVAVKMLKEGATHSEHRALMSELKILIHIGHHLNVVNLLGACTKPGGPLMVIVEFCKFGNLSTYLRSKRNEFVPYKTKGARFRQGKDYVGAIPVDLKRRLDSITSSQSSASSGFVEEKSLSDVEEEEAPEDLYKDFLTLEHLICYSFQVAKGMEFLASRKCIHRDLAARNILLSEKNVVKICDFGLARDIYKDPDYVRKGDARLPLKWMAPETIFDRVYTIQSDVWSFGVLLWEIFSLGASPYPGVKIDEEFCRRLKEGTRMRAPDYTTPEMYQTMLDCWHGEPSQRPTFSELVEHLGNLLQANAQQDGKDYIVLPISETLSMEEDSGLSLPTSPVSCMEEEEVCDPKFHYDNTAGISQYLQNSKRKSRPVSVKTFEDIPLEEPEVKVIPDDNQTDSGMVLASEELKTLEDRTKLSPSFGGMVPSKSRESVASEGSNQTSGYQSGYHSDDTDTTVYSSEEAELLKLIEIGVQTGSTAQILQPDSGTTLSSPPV

EC50 [1]: 0.0088 µg/mL
EC50 (read off the curve) [2]: 0.1 µg/mL
EC50 [3]: 0.00926 µg/mL
IC50 [4]: 0.805 µg/mL
IC50 [5]: 0.126 µg/mL
EC50 [6]: 0.00871 µg/mL
IC50 [7]: 0.849 µg/mL
IC50 [8]: 0.0285 µg/mL
EC50 [9]: 0.00919 µg/mL
EC50 [10]: 0.0682 µg/mL
Substance: 1121B (benchmark antibody, Ramucirumab)
